For test [1], the target named is T1, ARG2 (Homo sapiens, UniProt P78540).
T1 sequence (P78540 23-354): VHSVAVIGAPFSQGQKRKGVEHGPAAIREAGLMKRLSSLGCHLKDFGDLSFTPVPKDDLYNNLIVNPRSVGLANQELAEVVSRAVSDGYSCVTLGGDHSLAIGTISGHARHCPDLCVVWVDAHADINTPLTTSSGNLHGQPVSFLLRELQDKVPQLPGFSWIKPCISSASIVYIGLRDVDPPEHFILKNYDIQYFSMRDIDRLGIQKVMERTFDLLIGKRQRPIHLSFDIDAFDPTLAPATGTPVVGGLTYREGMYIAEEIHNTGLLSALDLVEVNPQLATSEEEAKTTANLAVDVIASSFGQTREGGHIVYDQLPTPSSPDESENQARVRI
Kind of test: T cell proliferation assay (BrdU, 72 hours) with exogenous ARG2. It counts as cell-based. More on the design: human ARG2 (aa23-354); His10 (C); made in house; host or cells: E. coli BL21 (DE3). As for the experimental part:
This assay served to provide in vitro evidence of functional efficacy for each antibody.
Briefly, Leukocyte cones (NHS Blood and Transplant, Watford, UK) underwent Ficoll Plaque (GE, Sweden; Cat: 17-1440-02) gradient separation, PBMC's were extracted and pan T cell population isolated by negative selection using the Human T Cell Enrichment Kit (Stemcell Technologies, France; Cat: 19051) according to the manufacturer's instructions.
40000 cells/well were seeded in complete growth media (RMPI 1640, 5% Human Serum Albumin) into a 96 well clear TC treated microplate (Greiner-Bio One, Germany; Cat: 655180). T Cells were activated by the addition of ImmunoCult CD3/CD28 (Stemcell Technologies, France; Cat: 10971) at a dilution of 1:40 directly into wells and the plate incubated 37° C., 5% CO2 for 45 minutes.
To determine EC50's of test antibodies, a dilution series was created in sterile TBS at 8× the final assay concentration was added to the assay plate containing cells. Plate was incubated for 30 minutes at 37° C., 5% CO2.
ARG2 was added to relevant wells of the plate at a final concentration of 15 μg/ml. The equivalent volume of ARG2 vehicle and test antibody vehicle was added to relevant control wells. […]
(§1) Calculated data was expressed as % of control (Equation 3) and graphical plots were constructed using a four parameter fit and EC50's determined using model 205 in XLFit (IDBS, UK). […]

Test [2] deals with T1, ARG2. Kind of test: T cell proliferation assay (BrdU, 96 hours) with exogenous ARG2, improved variant IgGs. In kind it is cell-based. More on the design: human ARG2 (aa23-354); His10 (C); made in house; host or cells: E. coli BL21 (DE3). The following applies: In Presence of rhARG2; hIgG1; top conc 2 μM; n=2. As for the experimental part: This assay served to provide evidence of improved functional efficacy for each affinity-matured antibody in comparison to the parent IgG, C0020187 (FIG. 12).
Lead optimisation clones were tested to an endpoint treatment time of 96 hours and the BrdU Cell Proliferation Kit (Roche, France; Cat: 11647229001) was used according to the manufacturer's instructions. R347 was used as the irrelevant control. All clones tested n=2.
Leukocyte cones underwent Ficoll Plaque (GE, Sweden; Cat: 17-1440-02) gradient separation, PBMC's were extracted and pan T cell population isolated by negative selection using the Human T Cell Enrichment Kit (Stemcell Technologies, France; Cat: 19051) according to the manufacturer's instructions.
40000 cells/well were seeded in complete growth media (RMPI 1640, 5% Human Serum Albumin) into a 96 well clear TC treated microplate (Greiner-Bio One, Germany; Cat: 655180). T cells were activated by the addition of ImmunoCult CD3/CD28 (Stemcell Technologies, France; Cat: 10971) at a dilution of 1:40 directly into wells and the plate incubated 37° C., 5% CO2 for 45 minutes. […]
as §1

B1: C0020065: anti-ARG2 antibody, alternate lead isolation clone, VH SEQ ID NO: 2, VL SEQ ID NO: 7 (antibody, listed as Homo sapiens, V domains shown)
VH: GVNLRESGGGVVQPGRSLRLSCAASGFTFSSYAMHWVRQAPGKGLEWVAVISYDGSNKYYVDSVKGRFTISRDNSKNTLYLQMNSLRAEDTAVYYCARDSSQLWFDYWGRGTLVTVSS
VL: QSVVTQPPSVSGAPGQRVTISCTGSSSNIGTGYDVHWYQQLPGTAPKLLIYGNSNRPSGVPDRFSGSKSGTSASLAITGLQAEDEADYYCQSYDSSLSGSVVFGGGTQLTVL
modifications: C0020065
Consider B1, for which the EC50 – broadly, the concentration that produces a half-maximal response – in the test with ARG2 [1] (In Presence of rhARG2) was > 2000 nM. Also, in the test with ARG2 [1] (In Presence of rhARG2, NHLA value at 0.444 mM), the “Maximum % Proliferation” value was 49%.

B2: C0021158: anti-ARG2 antibody, second generation lead, VH SEQ ID NO: 272, VL SEQ ID NO: 277 (antibody, listed as Homo sapiens, V domains shown)
VH: EVQLLESGGGLVQPGGSLRLSCAASGFTFRYEVAAWVRQAPGKGLEWVSAISGPIPKGYYADSVKGRFTISRDNSKNTLYLQMNSLRAEDTAVYYCARLRADLGLYMDLWGRGTLVTVPS
VL: QSVLTQPPSVSAAPGQKVTISCSGSSSNIGNHYVSWYQQLPGTAPKLLIYDNSERTAGVPDRFSGSKSGTSATLGITGLQTGDEADYYCGTWDELTSNLVFGGGTKLTVL
modifications: C0021158
Turning to B2, in the test with ARG2 [2], the EC50 is 157 nM and the “Maximum % Proliferation” value was determined as 90%.

For the origin of these results see patent US20220403048A1, “BINDING MOLECULES TO ARGINASE II [ARG2]” (Cancer Research Technology Limited, priority 2019, published 2022).
